Ratio to parent data for four variants are collected here from publication PMC6488192 (2019).

The labels stand for the following.
B1: RNA Editing Helicase 2 (REH2) wild type with TAP tag [T. brucei] / REH2-Associated Factor 1 (^H2F1), endogenous [T. brucei (endogenous in Lister 427 29-13 procyclic cells)] (parent complex)
chain 1: FQTQEITPGEVSLVEATDESDRAFGETRKEDFSFDGSSEFPECFKDTKHVDTFSRARVVSFIKRFSQGAVTSSSEVFEGREIVNDNGTPLYHSRVRLPFRSHTGELWAHGVACNSKDAELLAAMHAEHIIDEFGYHIYTLPSMQRKHAEAARKAGRWAPLPDELERTQSPVRVPLPLRRIVDRDETEGGKWLLIDMRPNHYISPSHTLLSPCLFDTTAVHRIKSFLDEHKLSFAQLCTSVEEPGEGGGQSWYVATVSLPPELSTFSEIKAQGKALNREAAVTLACMHAELVLDAHSICLYPSDSTKQKQHALAAWSYGRPAPLPGEDQKNPSHVVCPLPLKQLAVRREDRISCISYEEDIIRRHRALTDQTCEFIETPTLDSSAVEQLKQFLQRENVPRTDPFLVEEVNGYYKATVVLPLPDLYGIRGGVGIAMNATDARVLAAMHAIDVLNILGFHLMDGSTARAEWIAARRARGESVPADTRDPNVLSPSGRRRVATGNSSTQTPSSSTNARSVAAAPDVGTSDPTAPQNTKRRVAKRARVADAQPTEEKDAANSDSDEATSYLKMRETVSKELWNLEPDSPDGYIMVSPTDPETRTQFEQALYSPRQVDLGSKSRIKNYLASVGRRIEEVFFVQRIEAEDNGGQAICRCAVNLPVPRRFGDRIALGEAVDPKDAENLAAMHAELILDTLGIPIYTDSALQRLHVRLCAKCGRNAPVEYSESVAAATASPPPLRREVVGSIHWENKSKRRRAAISVQKGGGPANSQETTSALREDEEPLIAPKERREYTFVPEKDLDLVSRARVHYYLRRNGIAKLEPEYRMELRGLGNVLHIAELTLPLPDVYGKRVAHGSALTKRDAEILCWMHAEQILDAVGLCLFDNLPMLQRRHVECVKRLGRWAPLVSENATKPPHTPTPLPLTLGTTQEKPQYPTPPTNVRQDWEQYAQECQRYIEINVMREHNIFYEMGKTPRTGDETYDAALAEVESMPIDPDAKTVLQRYCNVANVNYPTFWKSRTVGPISCRVCLTTIEVPGHEYLRASGVAWNKEASQRQAAMHALALLRRVEPDFAEFEKQIKAEVVDKVNLVDPAAVLDEEAPVLRRTARVSKKSLGNWDPVSKDFSHEGKVRIIELFTVCFGLQPPLVRHLNRRSGSFVQHFTVVEVTDEDGKTWVGTGRDAGPRFNEPAAFDDLFSKLSRGVQGFQALMDLIRAHPHLDPEHIANVSLTDSQKERILKAVDGLPMVEEEDVAHPEQWADADSDRGIGIMALIAMDASQRAQESQELEAKLQAKLTNEEYQTRYASQRQRLRIYEKRDEILRAISSNQIVIICGTTGCGKTTQVPQYILDDMTEKGMGGDCSIVITQPRRLSAVSIARRVAAERLESIGETCGYSIRLDAKPGRNINFCTSGVLLRLLHSAPLLNGINYLIIDEIHERDINSDFLLILLRQLLHRRKDLHVILMSATLQADQFGKYFGNAPIINVEGYVHAVEEMYLEDLVPIATERNVMTPLLKEAAAALERNGAADGFCPTVVPPTAKYGFLEATADIDYMTIQIAIDHAVRSLDLTDSSILVFLPGWDEINRAKEILERNAKFHIICLHSSVGAEEQMRCFLPAPEGKIKLILSTNIAESGVTIDDVAAVIDVGRGKEKSYVMRKGTTSVGRNEMGSMSQLVTVYASRANCVQRRGRVGRTRPGMCIRLYSKKHFQSLHDFQTPEMLRTHLDSLCLQILALDLGDPADFLQQALEPPSSDHIEAAMKRLHELGATTSTRQLTPLGLRLSRLPVAPKVGKMVIMGAILRCLDSALTIAGVSDTDVFISTREHREAVRLHKEDLSYGTQSDVIASVNAFNFWVTSHYAKTPAEVVYDLQERMLSVPQLLTVSKYKQQFFEIVAGSGFIHMKQNYKDAKNKDRADIFVDQSEYSADSLNVGLVKCVVASGLFPNVVMNRGKRLMRNKLANRLDPSSASVVHRTSQENIGQPYFVYDELVKSSESERLLVRDLTNVSLWTILLMGTSSMPVTYRDDLNLAVVDEWIMFRATFGTLELIRKFKRALNVCLGRKFMNPNDEENNAKLEELRCIIKELVCTPFKPNDLAEKPWEEKGVIIEPCTEPKGGSSEAEKTHVNSSHTPTTSAEAGGDS
chain 2: CHHPLRIPSVQLAAPRSHTHEDIAYASCPACSRVVHMCDMLTHLITAHRELDQTHCRKMCTERLALYERVIGVPLKKSELTSSGRRVLDFLPTVLPTGYMCNWCDRRSDVYATRDKFLKHVADVHTDIDLEEVEPHVPLPPRGVVVEKSNGDGGPQPTRRLNGVVAVAEKSEPINAVPRILGISLPRGVDRPLKATAQFSDTEFPCELCNRTFNSEIDLLQHLETRHPDGTAEGPAGVDSAAIADVAQFSAKEATTGGDQRVHVICDLCVSSSKVYKMPSALFSHIRFKHPNEDAAFHVERLIREQKTVSSFVCTVCQKAFASAAALDGHFNSKHAEQGEAQNVVGRVTANNCWWCHDCEKGFSSAKGLHGHMQNKHGLSSQTHPCPACKRVFADIYSLEEHLSLQHKTIRLSDIGLLTHVKCSTCERFFLSHEDLHRHAVKHHKKDPRAPAQPFEAPTSASHVAASTSAAVPSEVEATASPQGPRKVKKRKKTTEVSEVTS

Variants of B1 are the subject of this assay. Put plainly: IgG pulldown of TAP-tagged REH2, western blot quantification; parent: 1; read off a plot. On the technique in general: A western blot detects proteins with antibodies after separation by electrophoresis.
For the variant chain 1 R1949A, the ratio to parent is about 1.1.

chain 1 K1048A, chain 1 A1056D: the ratio to parent was about 1.

Consider chain 1 H1968E, for which the ratio to parent is about 0.97.

chain 1 R1993A: the ratio to parent is about 0.92.
